Experimental data taken from article PMC8487046.

What was measured:
[1] = molecular target: full‐length SREC‐II at the surface of stably transfected CHO cells (UniProt Q96GP6); experiment: flow cytometry on cells; SREC-II-overexpressing CHO cells against nontransfected CHO cells, on ice, PBS with 3% BSA; C1q 80 µg/mL (40 min, detected with anti-C1q and Cy-3 anti-mouse antibodies); Alexa Fluor 488-MalBSA or Alexa Fluor 568-CRT at 1, 5 and 10 µg/mL (30 min); MFI ratio
[2] = molecular target: acetylated BSA (AcBSA) (bovine (from the name BSA)) (UniProt P02769); experiment: SPR; AcBSA immobilized (900 RU, CM5, amine coupling; BSA as reference surface), serially diluted SREC-II(44-442) or SR-F1(20-421) injected; TBS-Ca-P; 20 µL/min; 25 °C; global fit, 1:1 Langmuir model; apparent KD

Sequence of SREC‐II(44‐442), extracellular domain of scavenger receptor expressed by endothelial cells II (Q96GP6 other isoform, or with tags, fused parts or gaps): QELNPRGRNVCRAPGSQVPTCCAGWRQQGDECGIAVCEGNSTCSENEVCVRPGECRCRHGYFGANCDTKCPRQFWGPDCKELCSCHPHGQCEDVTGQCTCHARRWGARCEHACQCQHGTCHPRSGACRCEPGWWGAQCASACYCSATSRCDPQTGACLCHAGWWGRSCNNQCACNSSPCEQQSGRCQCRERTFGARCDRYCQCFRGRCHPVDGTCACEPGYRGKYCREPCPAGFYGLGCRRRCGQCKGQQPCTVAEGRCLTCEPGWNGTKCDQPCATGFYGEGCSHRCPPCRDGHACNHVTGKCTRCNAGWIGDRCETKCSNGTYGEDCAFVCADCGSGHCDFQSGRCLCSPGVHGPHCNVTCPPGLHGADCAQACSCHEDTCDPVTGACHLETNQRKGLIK
Sequence of Alexa Fluor 488‐labelled MalBSA (P02769 25-607): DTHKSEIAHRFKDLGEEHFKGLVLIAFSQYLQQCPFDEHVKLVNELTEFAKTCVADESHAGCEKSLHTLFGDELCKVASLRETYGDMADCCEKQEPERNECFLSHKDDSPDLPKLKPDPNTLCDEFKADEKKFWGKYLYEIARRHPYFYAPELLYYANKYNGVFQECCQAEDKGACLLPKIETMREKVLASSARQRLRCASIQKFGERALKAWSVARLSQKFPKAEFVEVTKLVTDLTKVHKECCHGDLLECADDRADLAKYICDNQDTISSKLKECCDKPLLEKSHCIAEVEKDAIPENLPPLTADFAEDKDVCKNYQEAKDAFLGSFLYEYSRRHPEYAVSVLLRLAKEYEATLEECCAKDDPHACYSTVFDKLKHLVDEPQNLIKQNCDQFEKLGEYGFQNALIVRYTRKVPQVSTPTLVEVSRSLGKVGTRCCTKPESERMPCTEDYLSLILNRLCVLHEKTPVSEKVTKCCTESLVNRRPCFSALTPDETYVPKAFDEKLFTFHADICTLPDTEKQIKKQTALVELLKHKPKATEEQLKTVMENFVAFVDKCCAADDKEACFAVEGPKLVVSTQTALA
Sequence of full‐length SREC‐II at the surface of stably transfected CHO cells (Q96GP6 44-871): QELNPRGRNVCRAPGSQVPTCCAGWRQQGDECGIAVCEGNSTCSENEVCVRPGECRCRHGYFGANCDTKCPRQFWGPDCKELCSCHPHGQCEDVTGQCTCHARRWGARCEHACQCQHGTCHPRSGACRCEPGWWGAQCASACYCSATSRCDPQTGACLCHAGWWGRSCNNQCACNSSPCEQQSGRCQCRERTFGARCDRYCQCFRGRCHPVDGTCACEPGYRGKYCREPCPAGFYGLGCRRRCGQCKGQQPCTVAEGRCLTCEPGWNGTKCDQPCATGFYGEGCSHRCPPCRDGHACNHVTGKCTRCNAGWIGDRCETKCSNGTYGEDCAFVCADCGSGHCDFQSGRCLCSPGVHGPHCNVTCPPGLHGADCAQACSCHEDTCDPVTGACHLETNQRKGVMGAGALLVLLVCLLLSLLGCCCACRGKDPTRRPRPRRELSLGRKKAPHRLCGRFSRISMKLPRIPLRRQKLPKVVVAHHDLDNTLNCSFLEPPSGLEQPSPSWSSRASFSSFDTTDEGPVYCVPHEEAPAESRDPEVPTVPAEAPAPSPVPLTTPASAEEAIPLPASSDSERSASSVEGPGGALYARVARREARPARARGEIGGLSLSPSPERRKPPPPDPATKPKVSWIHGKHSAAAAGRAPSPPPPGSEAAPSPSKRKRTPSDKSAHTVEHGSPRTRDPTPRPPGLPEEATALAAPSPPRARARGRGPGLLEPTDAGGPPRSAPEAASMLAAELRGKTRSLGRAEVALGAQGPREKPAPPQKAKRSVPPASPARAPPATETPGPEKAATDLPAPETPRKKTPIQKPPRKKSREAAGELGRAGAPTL

increase in binding compared with nontransfected CHO cells [1] [%] | Kd [2] [µM] | koff [2] [s⁻¹] | kon [2] [M⁻¹ s⁻¹] | Substance
40 to 50 |  |  |  | Alexa Fluor 488‐labelled MalBSA (from UniProt P02769 25-607)
 | 0.2 | 0.00015 | 7800 | SREC‐II(44‐442), extracellular domain of scavenger receptor expressed by endothelial cells II (from UniProt Q96GP6 44-442) (domain or fragment)
